According to US20180057604A1 (Genentech, published 2018):

T1: cyno TfR extracellular domain (analogous construct to human TfR ecd) (cynomolgus monkey, UniProt Q5RDH6 87-760 (Pongo abelii entry))
T1 construct: also called cynoTfR ecd
T1 chain: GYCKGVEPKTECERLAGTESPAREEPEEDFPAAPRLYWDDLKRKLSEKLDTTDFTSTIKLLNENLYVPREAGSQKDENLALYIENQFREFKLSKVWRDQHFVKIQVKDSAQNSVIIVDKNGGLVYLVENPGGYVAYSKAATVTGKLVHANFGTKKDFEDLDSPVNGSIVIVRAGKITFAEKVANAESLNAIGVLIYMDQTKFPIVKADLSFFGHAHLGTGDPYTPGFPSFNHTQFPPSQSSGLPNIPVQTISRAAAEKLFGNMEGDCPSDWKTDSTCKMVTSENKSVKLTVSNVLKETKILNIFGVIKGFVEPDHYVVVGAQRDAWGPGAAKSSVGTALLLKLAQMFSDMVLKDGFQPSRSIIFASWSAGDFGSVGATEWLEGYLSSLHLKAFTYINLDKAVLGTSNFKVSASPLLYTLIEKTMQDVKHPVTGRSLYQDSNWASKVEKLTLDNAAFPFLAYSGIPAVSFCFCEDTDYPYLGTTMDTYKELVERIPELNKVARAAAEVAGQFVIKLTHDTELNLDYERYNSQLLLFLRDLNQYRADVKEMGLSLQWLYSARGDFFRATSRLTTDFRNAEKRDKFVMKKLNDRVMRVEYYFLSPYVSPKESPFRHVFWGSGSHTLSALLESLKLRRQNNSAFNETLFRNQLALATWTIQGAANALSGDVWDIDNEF


Tests used:
[1] = molecular target: T2, human BACE1 ECD; test: Octet, pH 5.0
T2 construct: analyte of the Octet assay (200 nM) and enzyme of the first short substrate assay; also called human BACE1 extracellular domain
T2 sequence (single chain, as listed by the source limits assumed): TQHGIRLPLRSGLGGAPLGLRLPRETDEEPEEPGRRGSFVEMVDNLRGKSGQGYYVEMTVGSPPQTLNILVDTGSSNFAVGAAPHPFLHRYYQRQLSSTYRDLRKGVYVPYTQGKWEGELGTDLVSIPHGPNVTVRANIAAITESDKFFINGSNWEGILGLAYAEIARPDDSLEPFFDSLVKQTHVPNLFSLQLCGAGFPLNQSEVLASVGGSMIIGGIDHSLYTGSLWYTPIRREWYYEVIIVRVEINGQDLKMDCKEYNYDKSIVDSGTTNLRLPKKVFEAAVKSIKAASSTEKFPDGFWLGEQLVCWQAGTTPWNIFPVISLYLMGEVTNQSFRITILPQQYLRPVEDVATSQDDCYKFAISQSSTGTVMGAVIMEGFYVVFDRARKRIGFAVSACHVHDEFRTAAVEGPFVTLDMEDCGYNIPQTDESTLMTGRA
Method: (§1) Anti-BACE1 antibodies were loaded onto anti-human capture (AHC) sensors (tips) followed by 60 seconds baseline in assay buffer. […] Tips were transferred to assay buffer for 5 minutes, 30 minutes, or 120 minutes depending on the off-rate, for off-rate measurement. Assay buffer was either PBS+0.1% BSA, pH 7.5; or PBS+0.1% BSA, pH 5.0. Kinetics were analyzed using a 1:1 binding model.

[2] = molecular target: T3, murine BACE1 ECD; test: Octet, pH 5.0
T3 construct: analyte of the Octet assay (200 nM) and enzyme of the first short substrate assay
T3 sequence (single chain, as listed by the source limits assumed): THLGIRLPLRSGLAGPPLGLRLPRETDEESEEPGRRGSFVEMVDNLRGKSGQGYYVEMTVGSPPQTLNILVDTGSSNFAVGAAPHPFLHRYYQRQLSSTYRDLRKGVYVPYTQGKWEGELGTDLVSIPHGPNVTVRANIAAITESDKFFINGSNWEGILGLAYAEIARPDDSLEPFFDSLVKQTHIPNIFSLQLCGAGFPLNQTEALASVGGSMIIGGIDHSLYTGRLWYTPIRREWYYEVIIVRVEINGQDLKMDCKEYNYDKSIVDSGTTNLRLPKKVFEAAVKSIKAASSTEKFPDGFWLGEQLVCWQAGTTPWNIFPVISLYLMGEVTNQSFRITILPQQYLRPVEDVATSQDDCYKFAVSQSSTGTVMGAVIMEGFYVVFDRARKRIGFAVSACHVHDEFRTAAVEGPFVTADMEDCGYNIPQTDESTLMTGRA
Method: as §1

[3] = molecular target: T2, human BACE1 ECD; test: Octet, pH 7.5
Method: as §1

[4] = molecular target: T3, murine BACE1 ECD; test: Octet, pH 7.5
Method: as §1

[5] = molecular target: BACE1 in primary mouse cortical neurons (mouse, UniProt P56818 46-501); test: cell-based or functional assay
Sequence of BACE1 in primary mouse cortical neurons (P56818 46-501): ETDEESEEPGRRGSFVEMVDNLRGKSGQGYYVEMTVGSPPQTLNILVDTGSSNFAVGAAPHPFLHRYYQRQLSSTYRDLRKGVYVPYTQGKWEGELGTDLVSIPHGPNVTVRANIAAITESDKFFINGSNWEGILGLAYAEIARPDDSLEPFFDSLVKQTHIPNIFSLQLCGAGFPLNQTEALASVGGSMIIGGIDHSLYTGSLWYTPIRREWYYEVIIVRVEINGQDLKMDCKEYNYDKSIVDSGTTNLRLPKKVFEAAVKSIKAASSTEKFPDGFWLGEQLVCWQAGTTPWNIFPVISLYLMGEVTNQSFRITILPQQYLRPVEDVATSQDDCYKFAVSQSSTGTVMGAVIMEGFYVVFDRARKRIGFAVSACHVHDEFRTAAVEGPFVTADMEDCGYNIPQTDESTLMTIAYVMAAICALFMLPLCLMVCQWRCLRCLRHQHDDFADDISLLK

[6] = molecular target: T4, human TfR extracellular domain with N-terminal His tag (human, UniProt P02786 89-760); test: ELISA, IgG
T4 construct: Biotinylated in some assays; also called huTfR; HuTfR
T4 sequence (P02786 89-760 G142S): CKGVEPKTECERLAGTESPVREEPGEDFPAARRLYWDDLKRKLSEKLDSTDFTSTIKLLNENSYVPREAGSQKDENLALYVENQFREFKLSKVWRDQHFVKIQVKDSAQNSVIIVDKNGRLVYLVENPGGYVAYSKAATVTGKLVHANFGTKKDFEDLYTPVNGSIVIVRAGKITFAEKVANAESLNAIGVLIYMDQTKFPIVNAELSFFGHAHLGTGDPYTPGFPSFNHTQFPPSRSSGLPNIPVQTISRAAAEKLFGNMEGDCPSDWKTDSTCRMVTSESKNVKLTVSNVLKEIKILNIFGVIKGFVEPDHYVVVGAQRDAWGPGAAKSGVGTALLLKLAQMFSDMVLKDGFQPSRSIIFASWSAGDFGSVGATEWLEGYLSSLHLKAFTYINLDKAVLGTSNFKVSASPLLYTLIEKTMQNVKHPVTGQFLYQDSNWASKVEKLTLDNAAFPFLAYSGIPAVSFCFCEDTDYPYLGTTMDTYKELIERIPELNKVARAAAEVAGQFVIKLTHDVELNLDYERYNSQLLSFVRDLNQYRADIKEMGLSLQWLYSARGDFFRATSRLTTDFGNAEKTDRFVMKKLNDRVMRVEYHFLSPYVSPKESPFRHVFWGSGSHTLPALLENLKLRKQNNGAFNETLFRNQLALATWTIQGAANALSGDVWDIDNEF

[7] = molecular target: T1, cyno TfR extracellular domain …; test: ELISA, IgG
[8] = molecular target: T4, human TfR extracellular domain with …; test: SPR SCK 1:1 fit, IgG
Method: (§2) Antibody affinities were measured using surface plasmon resonance (“SPR”) (Biacore™, GE Healthcare). Anti-His antibody (Qiagen) was coupled onto four different flow cells of a BIACORE™ CM5 sensor chip (Biacore, Inc., Piscataway, N.J.) at between 6000 and 8000 RU. Immobilization was achieved by random coupling through amino groups using a protocol provided by the manufacturer. 10×HBS-P (Biacore, Inc., Piscataway, N.J.) was diluted in water and served as the dilution and running buffer. Purified human or cyno TfR was captured, followed by a 3-fold dilution series of IgG or Fab that was injected at a flow rate of 30 ml/min using the single cycle kinetics method. Affinity constants were determined using a simple 1:1 Langmuir binding model or using a steady state model when kₒₙ or koff was beyond the detection limit. The equilibrium dissociation constant (KD) was calculated as the ratio of association rate constant (kₒₙ) and dissociation rate constant (koff).
(§3) These variants were screened as IgG by ELISA and SPR to identify positions important for binding to human and cyno TfR; the monovalent affinity of selected variants as Fab was also determined. […] Plates were washed with PBS/0.05% Tween 20 and blocked using Superblock blocking buffer in PBS (Thermo Scientific, Hudson, N.H.). Supernatants containing expressed IgG were diluted serially 1:5 and added to the plate for 1 h. […] Plates were washed with PBS/0.05% Tween 20 and 1:1000 diluted HRP-Goat-anti kappa (Southern Biotech) was added the plate and incubated for 1 h at room temperature. Plates were washed with PBS/0.05% Tween 20 and detected using TMB substrate (BioFX Laboratories, Owings Mills). Binding was also assessed by SPR, as described above.

[9] = molecular target: T4, human TfR extracellular domain with …; test: SPR steady state, IgG
Method: as §2, §3

[10] = molecular target: T1, cyno TfR extracellular domain …; test: SPR, TfR captured by anti-His, Fab injected
Method: as §2
In both cases, the SPR experiments were performed as described above.

[11] = molecular target: T4, human TfR extracellular domain with …; test: SPR, Fab
Method: as §2, §3

Row | Kd [1] | Kd [2] | Kd [3] | Kd [4] | IC50, Abeta x-40 in mouse cortical neurons [5] | maximal % inhibition of Abeta x-40 [5] | EC50 [6] | EC50 [7] | Kd [8] | Kd [9] | Kd [10] | Kd [11] | Binder
1 | < 0.21 nM | < 0.25 nM | < 0.25 nM | < 0.26 nM | – | 73% | – | – | – | – | – | – | 6315 (antibody, V domains shown, anti-BACE1 IgG) VH: QLQLQESGPGLVKPSETLSLTCTVSGGSISRGSYYWGWIRQPPGKGLEWIGMIYYSGSTWYNPSLKSRVTISVDTSKNQFSLKLSSVTAADTAVYYCARVGHGVSYFDLWGRGTLVTVSS VL: EIVLTQSPATLSLSPGERATLSCRASQSVSSYLAWYQQKPGQAPRLLIYDASKRATGIPARFSGSGSGTDFTLTISSLEPEDFAVYYCQQSLVWPPRTFGGGAKVEIK
2 | < 0.22 nM | < 0.26 nM | 0.38 nM | 0.33 nM | 3.38 nM | 71% | – | – | – | – | – | – | 6314 (antibody, V domains shown, anti-BACE1 IgG) VH: QLQLQESGPGLVKPSETLSLTCTVSGGSISRGSYYWGWIRQPPGKGLEWIGMIYYSGSTWYNPSLKSRVTISVDTSKNQFSLKLSSVTAADTAVYYCARVGHGVSYFDLWGRGTLVTVSS VL: EIVLTQSPATLSLSPGERATLSCRASQSVSSYLAWYQQKPGQAPRLLIYDASNRATGIPARFSGSGSGTDFTLTISSLEPEDFAVYYCQQSIVWPPRTFGGGTKVEIK
3 | – | – | – | – | – | – | 0.0458 µg/mL | 0.953 µg/mL | 167 nM | 228 nM | – | – | F91A (antibody, V domains shown, also called 15G11.v5 F91A (CDR-L3) IgG) VH: EVQLVQSGAEVKKPGASVKVSCKASGYTFTSYWMHWVRQAPGQRLEWIGEINPTNGRTNYIEKFKSRATLTVDKSASTAYMELSSLRSEDTAVYYCARGTRAYHYWGQGTMVTVSS VL: DIQMTQSPSSLSASVGDRVTITCRASDNLYSNLAWYQQKPGKSPKLLVYDATNLADGVPSRFSGSGSGTDYTLTISSLQPEDFATYYCQHAWGTPLTFGQGTKVEIK
4 | – | – | – | – | – | – | – | – | – | – | 48 nM | – | Hu15G11.HC32A Fab (Fab, V domains shown, Fab) VH: EVQLVQSGAEVKKPGASVKVSCKASGYTFTSAWMHWVRQAPGQRLEWIGEINPTNGRTNYIEKFKSRATLTVDKSASTAYMELSSLRSEDTAVYYCARGTRAYHYWGQGTMVTVSS VL: DIQMTQSPSSLSASVGDRVTITCRASDNLYSNLAWYQQKPGKSPKLLVYDATNLADGVPSRFSGSGSGTDYTLTISSLQPEDFATYYCQHFWGTPLTFGQGTKVEIK
5 | – | – | – | – | – | – | – | – | – | – | – | 383 nM | F91A (Fab, V domains shown, also called 15G11.v5 F91A (CDR-L3) Fab) VH: EVQLVQSGAEVKKPGASVKVSCKASGYTFTSYWMHWVRQAPGQRLEWIGEINPTNGRTNYIEKFKSRATLTVDKSASTAYMELSSLRSEDTAVYYCARGTRAYHYWGQGTMVTVSS VL: DIQMTQSPSSLSASVGDRVTITCRASDNLYSNLAWYQQKPGKSPKLLVYDATNLADGVPSRFSGSGSGTDYTLTISSLQPEDFATYYCQHAWGTPLTFGQGTKVEIK

More lines, now with the values behind:

Row | Binder | Kd [1] | Kd [2] | Kd [3] | Kd [4] | IC50, Abeta x-40 in mouse cortical neurons [5] | maximal % inhibition of Abeta x-40 [5] | EC50 [6] | EC50 [7] | Kd [8] | Kd [9] | Kd [10] | Kd [11]
6 | 6305 (antibody, V domains shown, anti-BACE1 IgG) VH: QVQLVQSGAEVKKPGSSVKVSCKASGGTLSGYAISWVRQAPGQGLEWMGNIIPGFGTANYAQKSQGRVTITADESTSTAYMELSSLRSEDTAVYYCARSGGTRYGMLDVWGQGTMVTVSS VL: EIVLTQSPATLSVSPGERATLSCRASQSVGSNLAWYQQKPGQAPRLLIYGASTRATGIPARFSGSGSGTEFTLTISSLQSEDFAVYYCQQSFVWPPRTFGGGTKVEIK | 0.96 nM | 1.6 nM | 0.53 nM | 0.56 nM | 9.69 nM | 67% | – | – | – | – | – | –
7 | 6309 (antibody, V domains shown, anti-BACE1 IgG) VH: QLQLQESGPGLVKPSETLSLTCTVSGGSISWSSYYWSWIRQPPGKGLEWIGSIYRSGRTYYNPSLKSRVTISVDTSKNQFSLKLSSVTAADTAVYYCARVGHGINYFDLWGRGTLVTVSS VL: EIVLTQSPATLSLSPGERATLSCRASQSVSSYLAWYQQKPGQAPRLLIYDASNRATGIPARFSGSGSGTDFTLTISSLEPEDFAVYYCQQSITWPPRTFGGGTKVEIK | 0.35 nM | 0.37 nM | 0.34 nM | 0.32 nM | 0.3 nM | 60% | – | – | – | – | – | –
8 | 6313 (antibody, V domains shown, anti-BACE1 IgG) VH: QLQLQESGPGLVKPSETLSLTCTVSGGSISRGSYYWGWIRQPPGKGLEWIGMIYYSGSTWYNPSLKSRVTISVDTSKNQFSLKLSSVTAADTAVYYCARVGHGVSYFDLWGRGTLVTVSS VL: EIVLTQSPATLSLSPGERATLSCRASQSVSSYLAWYQQKPGQAPRLLIYDASNRATGIPARFSGSGSGTDFTLTISSLEPEDFAVYYCQQAYVWPPRTFGGGTKVEIK | < 0.21 nM | < 0.24 nM | 0.41 nM | 0.27 nM | 2.78 nM | 67% | – | – | – | – | – | –
9 | 6307 (antibody, V domains shown, anti-BACE1 IgG) VH: QLQLQESGPGLVKPSETLSLTCTVSGGSISWSSYYWSWIRQPPGKGLEWIGSIYRSGRTYYNPSLKGRVTISVDTSKNQFSLKLSSVTAADTAVYYCARVGHGINYFDLWGRGTLVTVSS VL: EIVLTQSPATLSLSPGERATLSCRASQSVSSYLAWYQQKPGQAPRLLIYDASNRATGIPARFSGSGSGTDFTLTISSLEPEDFAVYYCQQSIVWPPRTFGGGTKVEIK | < 0.13 nM | < 0.17 nM | < 0.14 nM | < 0.15 nM | 0.45 nM | 68% | – | – | – | – | – | –
10 | 6308 (antibody, V domains shown, anti-BACE1 IgG) VH: QLQLQESGPGLVKPSETLSLTCTVSGGSISWSSYYWSWIRQPPGKGLEWIGSIYRSGRTYYNPSLKSRVTISVDTSKNQFSLKLSSVTAADTAVYYCARVGHGINYFDLWGRGTLVTVSS VL: EIVLTQSPATLSLSPGERATLSCRASQSVSSYLAWYQQKPGQAPRLLIYDASKRATGIPARFSGSGSGTDFTLTISSLEPEDFAVYYCQQSLVWPPRTFGGGTKVEIK | < 0.14 nM | < 0.17 nM | < 0.14 nM | < 0.15 nM | 0.68 nM | 60% | – | – | – | – | – | –
11 | 6311 (antibody, V domains shown, anti-BACE1 IgG) VH: QLQLQESGPGLVKPSETLSLTCTVSGGSISWSSYYWSWIRQPPGKGLEWIGSIYRSGRTYYNPSLKSRVTISVDTSKNQFSLKLSSVTAADTAVYYCARVGHGINYFDLWGRGTLVTVSS VL: EIVLTQSPATLSLSPGERATLSCRASQSVSSYLAWYQQKPGQAPRLLIYDASNRATGIPARFSGSGSGTDFTLTISSLEPEDFAVYYCQQSLTWPPRTFGGGTKVEIK | 0.2 nM | 0.21 nM | 0.25 nM | 0.24 nM | 0.15 nM | 63% | – | – | – | – | – | –
12 | T96A (antibody, V domains shown, also called 15G11.v5 T96A (CDR-H3) IgG; copies: 2 + 2) VH: EVQLVQSGAEVKKPGASVKVSCKASGYTFTSYWMHWVRQAPGQRLEWIGEINPTNGRTNYIEKFKSRATLTVDKSASTAYMELSSLRSEDTAVYYCARGARAYHYWGQGTMVTVSS VL: DIQMTQSPSSLSASVGDRVTITCRASDNLYSNLAWYQQKPGKSPKLLVYDATNLADGVPSRFSGSGSGTDYTLTISSLQPEDFATYYCQHFWGTPLTFGQGTKVEIK | – | – | – | – | – | – | 0.274 µg/mL | 3.38 µg/mL | 173 nM | 433 nM | – | –
13 | W92A (antibody, V domains shown, also called 15G11.v5 W92A (CDR-L3) IgG; 15G11.W92A) VH: EVQLVQSGAEVKKPGASVKVSCKASGYTFTSYWMHWVRQAPGQRLEWIGEINPTNGRTNYIEKFKSRATLTVDKSASTAYMELSSLRSEDTAVYYCARGTRAYHYWGQGTMVTVSS VL: DIQMTQSPSSLSASVGDRVTITCRASDNLYSNLAWYQQKPGKSPKLLVYDATNLADGVPSRFSGSGSGTDYTLTISSLQPEDFATYYCQHFAGTPLTFGQGTKVEIK | – | – | – | – | – | – | 0.0118 µg/mL | – | 31 nM | 123 nM | – | –
